Reference: patent US11857601B2, “Pharmaceutical composition for cancer treatment comprising fusion protein including IL-2 protein and CD80 protein and anticancer drug” (GI INNOVATION, INC., priority 2020, dated 2024)

How the values were obtained:
CT26 cancer cell line = test: mGI102-M61 in mice transplanted with CT26 (Exp. Ex. 18); type: in vivo, BALB/c mice; details: 12 mg/kg i.v.
Method: The tumor size was measured daily.

[1] = tested on: effector CD8+ T cells, NK cells, Treg cells; test: Effect on mouse immune cells in spleen; type: in vivo, C57BL/6 mice; details: vs PBS
Method: On days 1, 3, 5, 7, and 14 after the injection, the spleen tissues were removed from the mice of each group. Thereafter, for the spleen tissue, the numbers of effector CD8+ T cells, NK cells, and Treg cells were calculated with FACS analysis using respective antibodies, and proportions of effector CD8+ T cells and NK cells with respect to Treg cells were respectively calculated. The information on the antibodies used in each cell analysis is as follows:
Effector CD8+ T cell: PB anti-mouse CD3ε antibody (Biolegend, #155612; KT3.1.1), FITC anti-mouse CD8α antibody (BD, #553031, 53-6.7), PE/Cy7 anti-mouse CD44 antibody (Biolegend, #103030; IM7), APC anti-mouse CD122 antibody (Biolegend, #123214; TM-β1)
NK cell: PB anti-mouse CD3ε antibody (Biolegend, #155612; KT3.1.1), PE anti-mouse NK-1.1 (Biolegend, #108708; PK136)
Treg cell: FITC anti-mouse CD3 antibody (Biolegend, #100204; 17A2), PB anti-mouse CD4 antibody (Biolegend, #100531; RM4-5), PE anti-mouse CD25 antibody (Biolegend, #102008; PC61), APC anti-mouse Foxp3 antibody (Invitrogen, #FJK-16s, 17-5773-82).

[2] = tested on: CD8+ T cells and CD4+/FoxP3+ Treg cells; test: Proliferation of CD8+ T cells and Treg cells in PBMCs (Exp. Ex. 10); type: cell-based, human; details: for proliferation of CD4+/FoxP3+ Treg cells: compared with no stimulus and anti-CD3 antibody alone
Method: Human PBMCs were purchased from Allcells (Lot #3014928, USA). […] CellTrace CFSE dye was used, which was reacted with the human PBMCs under a light-blocking condition at […] for 20 minutes. The cells were labeled with CFSE by being reacted with 1 μM CellTrace CFSE dye at 37° C. for 20 minutes. CFSE not bound to the cells was removed by being reacted for 5 minutes with a culture medium having a 5-fold volume of the staining reaction solution and then by being centrifuged at 1,300 rpm for 5 minutes. The CFSE-labeled PBMCs were resuspended in the culture medium (RPMI1640 medium containing 10% fetal bovine serum, 10 mM HEPES, 100 U/ml penicillin/streptomycin, 1 mM sodium pyruvate, 55 μM 2-mercaptoethanol, 1 mM non-essential amino acid, and 2 mM L-glutamine), and then added to a 96-well microplate at 1×10^5 cells per well.
The incubated cells were examined for their degree of proliferation by measuring, with FACS analysis using anti-human CD4-PE antibody (BioLegend, USA), anti-human CD8-PE/Cy7 antibody (BioLegend, USA), and anti-human FoxP3-APC antibody (BioLegend, USA), a proportion of CD8+ T cells that had not been labeled with CFSE.

B1: mGI102-M61: mCD80-Fc-IL-2 variant (3M) (R38A, F42A, E61R); SEQ ID NO: 34 (protein)
chain: MDAMLRGLCCVLLLCGAVFVSPSHAVDEQLSKSVKDKVLLPCRYNSPHEDESEDRIYWQKHDKVVLSVIAGKLKVWPEYKNRTLYDNTTYSLIILGLVLSDRGTYSCVVQKKERGTYEVKHLALVKLSIKADFSTPNITESGNPSADTKRITCFASGGFPKPRFSWLENGRELPGINTTISQDPESELYTISSQLDFNTTRNHTIKCLIKYGDAHVSEDFTWEKPPEDPPDSGSGGGGSGGGGSGGGGSAESKYGPPCPPCPAPEAAGGPSVFLFPPKPKDQLMISRTPEVTCVVVDVSQEDPEVQFNWYVDGVEVHNAKTKPREEQFNSTYRVVSVLTVLHQDWLNGKEYKCKVSNKGLPSSIEKTISKAKGQPREPQVYTLPPSQEEMTKNQVSLTCLVKGFYPSDIAVEWESNGQPENNYKTTPPVLDSDGSFFLYSRLTVDKSRWQEGNVFSCSVLHEALHNHYTQKSLSLSLGGGGGSAPTSSSTKKTQLQLEHLLLDLQMILNGINNYKNPKLTAMLTAKFYMPKKATELKHLQCLERELKPLEEVLNLAQSKNFHLRPRDLISNINVIVLELKGSETTFMCEYADETATIVEFLNRWITFCQSIISTLT
modifications: Sequence of fusion protein (mGI102-M61)
- survival rate (CT26 cancer cell line; vs negative control): significant improvement
- Tumor growth inhibition (CT26 cancer cell line; vs negative control (hIgG4)): significant tumor growth inhibition
- proportions of activated CD8+ T cells/Treg cells and NK cells/Treg cells ([1]; 3rd to 7th days after administration): significant increase
- numbers of CD8+ T cells and NK cells ([1]; 3rd to 14th days after i.v. administration (3, 6 or 12 mg/kg)): significant increase

B2: GI101C1: comparative fusion protein: human CD80 fragment, Ig hinge, Fc domain; SEQ ID NO: 17 (protein)
chain: VIHVTKEVKEVATLSCGHNVSVEELAQTRIYWQKEKKMVLTMMSGDMNIWPEYKNRTIFDITNNLSIVILALRPSDEGTYECVVLKYEKDAFKREHLAEVTLSVKADFPTPSISDFEIPTSNIRRIICSTSGGFPEPHLSWLENGEELNAINTTVSQDPETELYAVSSKLDFNMTTNHSFMCLIKYGHLRVNQTFNWNTTKQEHFPDNGSGGGGSGGGGSGGGGSAESKYGPPCPPCPAPEAAGGPSVFLFPPKPKDQLMISRTPEVTCVVVDVSQEDPEVQFNWYVDGVEVHNAKTKPREEQFNSTYRVVSVLTVLHQDWLNGKEYKCKVSNKGLPSSIEKTISKAKGQPREPQVYTLPPSQEEMTKNQVSLTCLVKGFYPSDIAVEWESNGQPENNYKTTPPVLDSDGSFFLYSRLTVDKSRWQEGNVFSCSVLHEALHNHYTQKSLSLSLG
modifications: Sequence of fusion protein (GI101C1)
- proliferation of CD4+/FoxP3+ Treg cells [2]: did not exhibit a significant increase

B3: GI102-M61: hCD80-Fc-IL-2 variant (3M) (R38A, F42A, E61R); SEQ ID NO: 28 (protein)
chain: VIHVTKEVKEVATLSCGHNVSVEELAQTRIYWQKEKKMVLTMMSGDMNIWPEYKNRTIFDITNNLSIVILALRPSDEGTYECVVLKYEKDAFKREHLAEVTLSVKADFPTPSISDFEIPTSNIRRIICSTSGGFPEPHLSWLENGEELNAINTTVSQDPETELYAVSSKLDFNMTTNHSFMCLIKYGHLRVNQTFNWNTTKQEHFPDNGSGGGGSGGGGSGGGGSAESKYGPPCPPCPAPEAAGGPSVFLFPPKPKDQLMISRTPEVTCVVVDVSQEDPEVQFNWYVDGVEVHNAKTKPREEQFNSTYRVVSVLTVLHQDWLNGKEYKCKVSNKGLPSSIEKTISKAKGQPREPQVYTLPPSQEEMTKNQVSLTCLVKGFYPSDIAVEWESNGQPENNYKTTPPVLDSDGSFFLYSRLTVDKSRWQEGNVFSCSVLHEALHNHYTQKSLSLSLGGGGGSAPTSSSTKKTQLQLEHLLLDLQMILNGINNYKNPKLTAMLTAKFYMPKKATELKHLQCLERELKPLEEVLNLAQSKNFHLRPRDLISNINVIVLELKGSETTFMCEYADETATIVEFLNRWITFCQSIISTLT
modifications: Sequence of fusion protein (GI102-M61)
- proportion of CD8+ T cells ([2]; anti-CD3ε 1 μg/ml, 7 days, compared with no stimulus, anti-CD3 antibody alone and GI101C1): significant increase
- proliferation of CD4+/FoxP3+ Treg cells [2]: did not exhibit a significant increase
